# Test results: the RNAGym collection of RNA variant scans (doi:10.7554/elife.80360)
# B1: HDV Ribozyme (parent)
# chain: GGCCGGCAUGGUCCCAGCCUCCUCGCUGGCGCCGGCUGGGCAACAUUCCGAGGGGACCGUCCCCUCGGUAAUGGCGAAUGGGACCCA
# Variants of: B1
# Test: self-cleavage, relative activity (ratio to wild type); higher = more cleavage; co-transcriptional
row,Variant,self-cleavage
1,GGCCGGCAUGGUCCCAGCCUCCUCGCUGGCGCCGGCUGGGCAACAUUCCGAGGGGACCGUCCCAUCGGUAUUGGCGAAUGGGACCCA,0.855
2,GGCCGGCAUGGUCCCAGCCUCCUCGCUGGCGCCGGCUGGGCAACAUUCCGAGGGGACCGUCCCAUCGGUACUGGCGAAUGGGACCCA,0.277
3,GGCCGGCAUGGUCCCAGCCUCCUCGCUGGCGCCGGCUGGGCAACAUUCCGAGGGGACCGUCCCAUCGGUAAUGGCGAGUGGGACCCA,0.686
4,GGCCGGCAUGGUCCCAGCCUCCUCGCUGGCGCCGGCUGGGCAACAUUCCGAGGGGACCGUCCCAUCGGUAAUGGCGACUGGGACCCA,0.242
5,GGCCGGCAUGGUCCCAGCCUCCUCGCUGGCGCCGGCUGGGCAACAUUCCGAGGGGACCGUCCCAUCGGUAAUGGCGAUUGGGACCCA,0.285
6,GGCCGGCAUGGUCCCAGCCUCCUCGCUGGCGCCGGCUGGGCAACAUUCCGAGGGGACCGUCCUCUCGGUAAUGGCGAAAGGGACCCA,0.997
7,GGCCGGCAUGGUCCCAGCCUCCUCGCUGGCGCCGGCUGGGCAACAUUCCGAGGGGACCGUCCUCUCGGUAAUGGCGAAGGGGACCCA,0.54
8,GGCCGGCAUGGUCCCAGCCUCCUCGCUGGCGCCGGCUGGGCAACAUUCCGAGGGGACCGUCCUCUCGGUAAUGGCGAACGGGACCCA,0.411
9,GGCCGGCAUGGUCCCAGCCUCCUCGCUGGCGCCGGCUGGGCAACAUUCCGAGGGGACCGUCCCAUCGGUAAUGGCGAAUGGGACCCA,0.908
10,GGCCGGCAUGGUCCCAGCCUCCUCGCUGGCGCCGGCUGGGCAACAUUCCGAGGGGACCGUCCUCUCGGUAAUGGCGAAUGGGUCCCA,0.584
11,GGCCGGCAUGGUCCCAGCCUCCUCGCUGGCGCCGGCUGGGCAACAUUCCGAGGGGACCGUCCUCUUGGUAAUGGCGAAUGGGACCCA,0.816
12,GGCCGGCAUGGUCCCAGCCUCCUCGCUGGCGCCGGCUGGGCAACAUUCCGAGGGGACCGUCCUCUCGGUAAUGGCGAAUGGGACCUA,1.05
13,GGCCGGCAUGGUCCCAGCCUCCUCGCUGGCGCCGGCUGGGCAACAUUCCGAGGGGACCGUCCUCUCGGUAAUGGCGAAUGGGACCAA,0.96
14,GGCCGGCAUGGUCCCAGCCUCCUCGCUGGCGCCGGCUGGGCAACAUUCCGAGGGGACCGUCCUCUCGGUAAUGCCGAAUGGGACCCA,0.201
15,GGCCGGCAUGGUCCCAGCCUCCUCGCUGGCGCCGGCUGGGCAACAUUCCGAGGGGACCGUCCUCUCGGUAAUGACGAAUGGGACCCA,0.546
16,GGCCGGCAUGGUCCCAGCCUCCUCGCUGGCGCCGGCUGGGCAACAUUCCGAGGGGACCGUCCUCUCGGUAAUGGCGAAUGGAACCCA,0.534

row,Variant,self-cleavage
1,GGCCGGCAUGGUCCCAGCCUCCUCGCUGGCGCCGGCUGGGCAACAUUCCGAGGGGACCGUCCUCUCGGUAAUGGCGAAUGGCACCCA,0.192
2,GGCCGGCAUGGUCCCAGCCUCCUCGCUGGCGCCGGCUGGGCAACAUUCCGAGGGGACCGUCCUCUCGGUAAUGGCGAAUGGUACCCA,0.509
3,GGCCGGCAUGGUCCCAGCCUCCUCGCUGGCGCCGGCUGGGCAACAUUCCGAGGGGACCGUCCCAUCGGUAAUGGCGCAUGGGACCCA,0.344
4,GGCCGGCAUGGUCCCAGCCUCCUCGCUGGCGCCGGCUGGGCAACAUUCCGAGGGGACCGUCCUUUCGGUAAUGGCGAAUGGGACCCA,1.08
5,GGCCGGCAUGGUCCCAGCCUCCUCGCUGGCGCCGGCUGGGCAACAUUCCGAGGGGACCGUCCUAUCGGUAAUGGCGAAUGGGACCCA,0.831
6,GGCCGGCAUGGUCCCAGCCUCCUCGCUGGCGCCGGCUGGGCAACAUUCCGAGGGGACCGUCCUGUCGGUAAUGGCGAAUGGGACCCA,0.809
7,GGCCGGCAUGGUCCCAGCCUCCUCGCUGGCGCCGGCUGGGCAACAUUCCGAGGGGACCGUCCUCUCGGGAAUGGCGAAUGGGACCCA,0.875
8,GGCCGGCAUGGUCCCAGCCUCCUCGCUGGCGCCGGCUGGGCAACAUUCCGAGGGGACCGUCCGCUCGGUAAUGGCGAAUGGCACCCA,0.136
9,GGCCGGCAUGGUCCCAGCCUCCUCGCUGGCGCCGGCUGGGCAACAUUCCGAGGGGACCGUCCGCUCGGUAAUGGCGAAUGGUACCCA,0.289
10,GGCCGGCAUGGUCCCAGCCUCCUCGCUGGCGCCGGCUGGGCAACAUUCCGAGGGGACCGUCCGCUCGGUAAUGGCGAAUGGAACCCA,0.219
11,GGCCGGCAUGGUCCCAGCCUCCUCGCUGGCGCCGGCUGGGCAACAUUCCGAGGGGACCGUCCUCUCGGUAAUGGAGAAUGGGACCCA,0.106
12,GGCCGGCAUGGUCCCAGCCUCCUCGCUGGCGCCGGCUGGGCAACAUUCCGAGGGGACCGUCCUCUCGGUAAUGGGGAAUGGGACCCA,0.0755
13,GGCCGGCAUGGUCCCAGCCUCCUCGCUGGCGCCGGCUGGGCAACAUUCCGAGGGGACCGUCCUCUCGGUAAAGGCGAAUGGGACCCA,0.864
14,GGCCGGCAUGGUCCCAGCCUCCUCGCUGGCGCCGGCUGGGCAACAUUCCGAGGGGACCGUCCUCUCGGUAACGGCGAAUGGGACCCA,0.751
15,GGCCGGCAUGGUCCCAGCCUCCUCGCUGGCGCCGGCUGGGCAACAUUCCGAGGGGACCGUCCUCUCGGUAAGGGCGAAUGGGACCCA,0.776
16,GGCCGGCAUGGUCCCAGCCUCCUCGCUGGCGCCGGCUGGGCAACAUUCCGAGGGGACCGUCCUCUCGGUAAUGGCGCAUGGGACCCA,0.352
